B1: 19B8 VHH (VHH)
VHH: QVQLVESGGGLVQAGGSLRLSCAASGRTFTNYAMGWFRQAPGKEREFVAAISWSGGGTNYADSVKGRFTISRDNAKNTVYLQMNSPKPEDTAVYYCATTLGYYGSSSRLYEYWGQGTQVTVSS
B2: 19C10 VHH (VHH)
VHH: QVQLVESGGGLVQPGGSLRLSCAASGFTLDLNSIGWFRQAPGKEREGVSCISPSASSTHYADSVKGRFTISRDNAKNTVYLQMNSLKPEDTAVYYCATGTPSYHYCSMYGLEYDDWGQGTQVTVSS
B3: 16H7 VHH (VHH)
VHH: QVQLVESGGGLVQAGGSLRLSCAASGRAFSKDTMGWFRQAPGKEREFVAVISASGDSTYYADFVKGRFTISRDNAKNTEYLQMNSLKPEDTAVYHCAADGARAYYSINAHRYSWAYNYWGQGTQVTVSS
B4: 6A1 VHH (VHH)
VHH: QVQLVESGGGLVQAGGSLRLSCTASGNIFSVNVMGWHRQAPGKRRELVAALTNDGRRNYADSVKGRFTISRDNAKNTIYLEMNSLKPEDTAVYYCGTGTLESGFNSWGQGLQVTVSS
B5: 11F5 VHH (VHH)
VHH: QVQLVESGGGAVQAGDSLRLSCTASGRTFSTYAVGWFRQAPGKERELLAAITGSGRNPYYPDSLKGRFTISREYAKLPVYLQMNSLKPEDTAVYYCAARRGAIATMPLDYDHWGQGTQVTVSS
B6: 7A9 VHH (VHH)
VHH: QVQLVESGGGLVQAGGSLRLSCSASGGTASRSAMGWFRQAPGKEREFVAGISRRNSGSTYVADSYEDSVKGRFTISRDNAKNTIYLQMNSLKPEDTAVYYCAAEPTLGWYVPRRSVEYEYWGQGTQVTVSS
B7: 20D11 VHH (VHH)
VHH: QVQLVESGGGLVQAGGSLRLSCAASGRTSSIYSVGWFRQAPGKERELVAGITWSGGTTYYSDSVKGRFTISRDNAKNTVNLQMNNLKPEDTAIYYCAVDRYSMTMSARDYDYWGQGTQVTVSS
B8: 5G11 VHH (VHH)
VHH: QVQLVESGGGLVQAGGSLRLSCAASGRTFSIYAVGWFRQAPGKERDFVAGITWSGGTTYYSDSVKGRFTISRDNAKNTVYLQMNNLKPEDTAIYYCAVDTYSMTLSARSYDYWGQGTQVTVSS
B9: 14F3 VHH (VHH)
VHH: QVQLVESGGGLVQAGGSLRLSCAASGRTSSIYGVGWFRQAPGKERELVALITWSGGTTYYSDSVKGRFTISKDNAKNTVFLQMNNLKPEDTAIYYCAVDTYSMTMSARDYEYWGQGTQVTVSS

Each binder was assayed against SARS-CoV-2 prefusion-stabilized spike protein (SARS-CoV-2-PreS) (SARS-CoV-2, UniProt P0DTC2 14-1208) (assay: Biacore, apparent affinity).

Q: For B1, which Kd is on record?
A: The Kd was 87 nM.

Q: For B2, which Kd is on record?
A: Its Kd is less than 50 nM.

Q: B3 was tested. Which Kd did it give?
A: Its Kd is 230 nM.

Q: For B4, which Kd is on record?
A: The Kd was greater than 500 nM.

Q: How did the Kd turn out when B5 was run?
A: Its Kd is 8 nM.

Q: How did the Kd turn out when B6 was run?
A: Its Kd is 0.22 nM.

Q: With B7 as the binder, how does the Kd read?
A: The Kd was 2.2 nM.

Q: How did the Kd turn out when B8 was run?
A: The Kd was 93 nM.

Q: Which Kd does the source give for B9 here?
A: Its Kd is 3 nM.
